{"source": "paper PMC12476836", "key": {"[1]": {"target": "FLAG-GFP-SLiM with the predicted DDVF-like motif of PTPN3", "experiment": "BioID2 proximity labeling (streptavidin immunoblot quantification)", "details": "n = 3; FLAG-GFP-SLiM +TEDVFY (PTPN3); parent: est. 1.6; read off a plot"}, "[2]": {"target": "FLAG-GFP-SLiM DDSVFS (FGFR2)", "experiment": "BioID2 proximity labeling (streptavidin immunoblot quantification)", "details": "n = 3, FLAG-GFP-SLiM +DDSVFS (FGFR2)"}, "[3]": {"target": "FLAG-GFP-SLiM with the predicted DDVF motif of GTSE1", "experiment": "BioID2 proximity labeling (streptavidin immunoblot quantification)", "details": "n = 3, FLAG-GFP-SLiM +DDEVFF (GTSE1)"}, "[4]": {"target": "FLAG-GFP-SLiM DDSVFA (FGFR3)", "experiment": "BioID2 proximity labeling (streptavidin immunoblot quantification)", "details": "n = 3, FLAG-GFP-SLiM +DDSVFA (FGFR3)"}, "[5]": {"target": "FLAG-GFP-SLiM EDSVFS (FGFR1)", "experiment": "BioID2 proximity labeling (streptavidin immunoblot quantification)", "details": "n = 3, FLAG-GFP-SLiM +EDSVFS (FGFR1)"}, "[6]": {"target": "FLAG-GFP-SLiM with the predicted DDVF-like motif of TRM9B", "experiment": "BioID2 proximity labeling (streptavidin immunoblot quantification)", "details": "n = 3; FLAG-GFP-SLiM +DEEVFV (TRM9B); parent: est. 1.2; read off a plot"}, "[7]": {"target": "FLAG-GFP-SLiM with the predicted DDVF-like motif of TMEM139", "experiment": "BioID2 proximity labeling (streptavidin immunoblot quantification)", "details": "n = 3; FLAG-GFP-SLiM +DDSVFY (TMEM139); parent: est. 2.4; read off a plot"}, "unnamed [8]": {"target": "unnamed", "experiment": "affinities annotated in the ELM database (various methods, AffinityMin)", "details": "cited from earlier work"}, "unnamed [9]": {"target": "unnamed", "details": "cited from earlier work"}, "unnamed [10]": {"target": "unnamed", "details": "cited from earlier work", "remark": "listed apart in the source"}}, "note": "pKd: −log10 of the molar value. Read-outs that look alike come from different tables or passages of the source.", "data": [{"substance": "HA-RSK(WT)-BioID2 (wild-type human RSK2, ribosomal protein S6 kinase A3, fused to BioID2) (from UniProt P51812) KAKLGM-to-KSEPPY", "values": [{"measurement": "response (normalized biotin/FLAG)", "setting": "[1]", "value": 1.1}, {"measurement": "ratio to parent", "setting": "[2]; marked *", "value": 3.8, "unit": "fold"}, {"measurement": "response (normalized biotin/FLAG)", "setting": "[2]; parent: est. 1.3, read off a plot", "value": 0.45}, {"measurement": "ratio to parent", "setting": "[3]; marked *", "value": 2.3, "unit": "fold"}, {"measurement": "response (normalized biotin/FLAG)", "setting": "[3]; parent: est. 0.85, read off a plot", "value": 0.38}, {"measurement": "ratio to parent", "setting": "[4]; marked *", "value": 2.4, "unit": "fold"}, {"measurement": "response (normalized biotin/FLAG)", "setting": "[4]; parent: est. 1.0, read off a plot", "value": 0.43}, {"measurement": "ratio to parent", "setting": "[5]; marked *", "value": 2.4, "unit": "fold"}, {"measurement": "response (normalized biotin/FLAG)", "setting": "[5]; parent: est. 1.4, read off a plot", "value": 0.6}, {"measurement": "response (normalized biotin/FLAG)", "setting": "[6]", "value": 0.85}, {"measurement": "response (normalized biotin/FLAG)", "setting": "[7]", "value": 0.4}]}, {"substance": "O75367 (from UniProt O75367)", "values": [{"measurement": "pKd", "setting": "unnamed [8]", "value": 4.20}]}, {"substance": "O95630 (from UniProt O95630)", "values": [{"measurement": "pKd", "setting": "unnamed [8]", "value": 6.33}]}, {"substance": "P01042 (from UniProt P01042)", "values": [{"measurement": "pKd", "setting": "unnamed [8]", "value": 3.96}]}, {"substance": "P01137 (from UniProt P01137)", "values": [{"measurement": "pKd", "setting": "unnamed [8]", "value": 8.14}]}, {"substance": "P06400 (from UniProt P06400)", "values": [{"measurement": "pKd", "setting": "unnamed [8]", "value": 5.41}]}, {"substance": "P10451 (from UniProt P10451)", "values": [{"measurement": "pKd", "setting": "unnamed [8]", "value": 9.37}]}, {"substance": "P14784 (from UniProt P14784)", "values": [{"measurement": "pKd", "setting": "unnamed [8]", "value": 6.12}]}, {"substance": "P17535 (from UniProt P17535)", "values": [{"measurement": "pKd", "setting": "unnamed [8]", "value": 4.14}]}, {"substance": "P30279 (from UniProt P30279)", "values": [{"measurement": "pKd", "setting": "unnamed [8]", "value": 5.60}]}, {"substance": "P46108 (from UniProt P46108)", "values": [{"measurement": "pKd", "setting": "unnamed [8]", "value": 4.99}]}, {"substance": "P49137 (from UniProt P49137)", "values": [{"measurement": "pKd", "setting": "unnamed [8]", "value": 7.30}]}, {"substance": "P61081 (from UniProt P61081)", "values": [{"measurement": "pKd", "setting": "unnamed [8]", "value": 5.74}]}, {"substance": "Q6NS38 (from UniProt Q6NS38)", "values": [{"measurement": "pKd", "setting": "unnamed [8]", "value": 6.62}]}, {"substance": "Q8NHG7 (from UniProt Q8NHG7)", "values": [{"measurement": "pKd", "setting": "unnamed [8]", "value": 5.23}]}, {"substance": "Q8TEB9 (from UniProt Q8TEB9)", "values": [{"measurement": "pKd", "setting": "unnamed [8]", "value": 4.18}]}, {"substance": "Q8WUK0 (from UniProt Q8WUK0)", "values": [{"measurement": "pKd", "setting": "unnamed [8]", "value": 6.28}]}, {"substance": "Q9H0W5 (from UniProt Q9H0W5)", "values": [{"measurement": "pKd", "setting": "unnamed [8]", "value": 6.74}]}, {"substance": "Q9H9L4 (from UniProt Q9H9L4)", "values": [{"measurement": "pKd", "setting": "unnamed [8]", "value": 5.07}]}, {"substance": "Q9NZM5 (from UniProt Q9NZM5)", "values": [{"measurement": "pKd", "setting": "unnamed [8]", "value": 4.63}]}, {"substance": "Q9UNA4 (from UniProt Q9UNA4)", "values": [{"measurement": "pKd", "setting": "unnamed [8]", "value": 6.52}]}, {"substance": "Q9UQ84 (from UniProt Q9UQ84)", "values": [{"measurement": "pKd", "setting": "unnamed [8]", "value": 4.78}]}, {"substance": "Q9Y698 (from UniProt Q9Y698)", "values": [{"measurement": "pKd", "setting": "unnamed [8]", "value": 4.49}]}, {"substance": "Q52LA3 (from UniProt Q52LA3)", "values": [{"measurement": "pKd", "setting": "unnamed [8]", "value": 5.85}]}, {"substance": "Q86VZ6 (from UniProt Q86VZ6)", "values": [{"measurement": "pKd", "setting": "unnamed [8]", "value": 5.05}]}, {"substance": "Q96AE4 (from UniProt Q96AE4)", "values": [{"measurement": "pKd", "setting": "unnamed [8]", "value": 5.22}]}, {"substance": "Q96ST2 (from UniProt Q96ST2)", "values": [{"measurement": "pKd", "setting": "unnamed [8]", "value": 5.33}]}, {"substance": "Q01094 (from UniProt Q01094)", "values": [{"measurement": "pKd", "setting": "unnamed [8]", "value": 5.97}]}, {"substance": "Q13137 (from UniProt Q13137)", "values": [{"measurement": "pKd", "setting": "unnamed [9]", "value": 5.80}]}, {"substance": "Q13309 (from UniProt Q13309)", "values": [{"measurement": "pKd", "setting": "unnamed [8]", "value": 5.49}]}, {"substance": "Q15004 (from UniProt Q15004)", "values": [{"measurement": "pKd", "setting": "unnamed [10]", "value": 6.00}]}, {"substance": "Q15054 (from UniProt Q15054)", "values": [{"measurement": "pKd", "setting": "unnamed [8]", "value": 5.77}]}, {"substance": "Q92844 (from UniProt Q92844)", "values": [{"measurement": "pKd", "setting": "unnamed [8]", "value": 4.85}]}, {"substance": "Q99816 (from UniProt Q99816)", "values": [{"measurement": "pKd", "setting": "unnamed [8]", "value": 6.00}]}]}
